Laboratory results: US20240252732A1 (IMMUNICOM, published 2024)

What was measured:
[1] = biological target: T1, soluble TNF receptor 1 (sTNF-R1) (human, UniProt P19438 30-211); assay: equilibrium KD; method not stated
T1 construct: extracellular domain
T1 sequence (looked up): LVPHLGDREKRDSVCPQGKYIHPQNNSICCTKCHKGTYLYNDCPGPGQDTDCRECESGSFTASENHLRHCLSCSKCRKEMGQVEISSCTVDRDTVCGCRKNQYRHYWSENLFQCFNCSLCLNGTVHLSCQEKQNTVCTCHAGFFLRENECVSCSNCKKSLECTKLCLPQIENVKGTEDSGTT

[2] = biological target: T2, soluble TNF receptor 2 (sTNF-R2) (human, UniProt P20333 23-257); assay: equilibrium KD; method not stated
T2 construct: extracellular domain
T2 sequence (looked up): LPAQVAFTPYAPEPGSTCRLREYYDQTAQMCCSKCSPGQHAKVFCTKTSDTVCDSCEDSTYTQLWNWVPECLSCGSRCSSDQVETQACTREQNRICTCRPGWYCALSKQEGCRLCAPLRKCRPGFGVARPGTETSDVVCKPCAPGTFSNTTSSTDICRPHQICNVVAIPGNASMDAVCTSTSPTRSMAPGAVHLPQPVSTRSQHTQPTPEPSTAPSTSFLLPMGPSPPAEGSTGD

Kd [1]: 100 nM
Kd [2]: 12 nM
B1: SEQ11 modified single chain TNF (scTNF) (ligand)
chain: THHHHHHHHHHAGGAENLYFQGSASSSSRTPSDKPVAHVVANPQAEGQLQWVNRRANALLANGVELRDNQLVVPSEGLYLIYSQVLFKGQGCPSTHVLLTHTISRIAVSYQTKVNLLSAIKSPCQRETPEGAEAKPWYEPIYLGGVFQLEKGDRLSAEINRPDYLDFDDDGQVYFGIIALGGGSGGGSGGGSGGGSSSRTPSDKPVAHVVANPQAEGQLQWVNRRANALLANGVELRDNQLVVPSEGLYLIYSQVLFKGQGCPSTHVLLTHTISRIAVSYQTKVNLLSAIKSPCQRETPEGAEAKPWYEPIYLGGVFQLEKGDRLSAEINRPDYLDFDDDGQVYFGIIALGGGSGGGSGGGSGGGSSSRTPSDKPVAHVVANPQAEGQLQWVNRRANALLANGVELRDNQLVVPSEGLYLIYSQVLFKGQGCPSTHVLLTHTISRIAVSYQTKVNLLSAIKSPCQRETPEGAEAKPWYEPIYLGGVFQLEKGDRLSAEINRPDYLDFDDDGQVYFGIIAL
notes: also called TNF variant trimer
